Data reported in paper PMC8221199, “Semisynthetic ‘designer’ p53 sheds light on a phosphorylation–acetylation relay†”.

B1: GADD45 target (dsDNA)
DNA 1: GTACAGAACATGTCTAAGCATGCTGGGGAC
DNA 2: GTCCCCAGCATGCTTAGACATGTTCTGTAC
B2: randomized competitor (dsDNA)
DNA 1: CCACCATACCTTCGATTATCGCGCCCACTC
DNA 2: GAGTGGGCGCGATAATCGAAGGTATGGTGG
B3: GADD45 unlabelled competitor (dsDNA)
DNA 1: B1 DNA 1
DNA 2: B1 DNA 2

What was measured:
p53rec [1] = biological target: T1, p53rec (UniProt P04637 1-393); assay: EMSA; 0.4 uM p53 (0.1 uM tetramer), 20 nM DNA; EMSA: 0.4 uM p53 variant (0.1 uM tetramer), 20 nM 32P-DNA, 1 uM unlabelled competitor where used, 20 min at RT, native gel; a p53 369-383 peptide was synthesized for the EMSAs; buffer, salt and pH not in the material; details: protein: recombinant; tags: untagged; chain copies: 4; label: 32P
T1 sequence (P04637 whole entry): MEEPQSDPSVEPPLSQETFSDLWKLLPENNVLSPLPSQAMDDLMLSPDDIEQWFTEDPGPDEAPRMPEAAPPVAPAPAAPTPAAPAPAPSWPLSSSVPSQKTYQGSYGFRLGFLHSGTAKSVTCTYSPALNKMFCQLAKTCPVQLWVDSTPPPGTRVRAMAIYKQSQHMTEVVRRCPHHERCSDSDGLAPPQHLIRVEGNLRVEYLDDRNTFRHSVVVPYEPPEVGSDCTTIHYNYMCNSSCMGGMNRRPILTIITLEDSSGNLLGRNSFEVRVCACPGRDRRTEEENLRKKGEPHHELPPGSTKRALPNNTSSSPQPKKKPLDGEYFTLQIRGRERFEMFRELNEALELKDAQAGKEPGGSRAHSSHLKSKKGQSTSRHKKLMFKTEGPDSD

p53rec [2] = biological target: T1, p53rec; assay: competition; 1 uM competitor vs 20 nM labelled GADD45; EMSA: 0.4 uM p53 variant (0.1 uM tetramer), 20 nM 32P-DNA, 1 uM unlabelled competitor where used, 20 min at RT, native gel; a p53 369-383 peptide was synthesized for the EMSAs; buffer, salt and pH not in the material; details: protein: recombinant; tags: untagged; chain copies: 4; label: none (unlabelled)

| Binder | binding result (p53rec [1]) | binding result (p53rec [2]) |
| --- | --- | --- |
| B1 | binds | – |
| B2 | – | no binding |
| B3 | – | binds |
